Measurements as given in paper PMC5565510 (Journal of molecular biology, 2017).

T1: Sulfolobus islandicus PilT N-terminal-domain-containing ATPase (SisPINA), untagged (Sulfolobus islandicus REY15A, UniProt F0NID4 1-505)
T1 sequence (looked up): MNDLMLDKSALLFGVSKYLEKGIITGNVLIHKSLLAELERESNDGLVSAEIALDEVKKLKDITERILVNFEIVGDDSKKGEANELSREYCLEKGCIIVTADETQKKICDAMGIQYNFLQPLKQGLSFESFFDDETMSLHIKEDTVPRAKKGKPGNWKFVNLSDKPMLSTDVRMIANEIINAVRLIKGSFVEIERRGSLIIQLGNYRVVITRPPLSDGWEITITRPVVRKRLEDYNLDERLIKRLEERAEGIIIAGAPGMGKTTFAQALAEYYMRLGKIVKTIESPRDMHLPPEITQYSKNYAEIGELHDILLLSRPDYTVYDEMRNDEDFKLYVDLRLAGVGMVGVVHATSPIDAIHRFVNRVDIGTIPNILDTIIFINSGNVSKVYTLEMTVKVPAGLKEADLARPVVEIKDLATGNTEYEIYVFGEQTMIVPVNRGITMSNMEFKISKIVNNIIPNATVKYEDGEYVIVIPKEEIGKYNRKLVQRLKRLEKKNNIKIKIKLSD


Experiments:
[1] = target: T1, Sulfolobus islandicus PilT …; assay: pull-down
crystal structure = target: the molecule itself; assay: crystal structure

binding result [1]	Binder	stoichiometry N (crystal structure)
binds	N-terminal His-tagged SisHjc (enzyme, Sulfolobus islandicus REY15A, UniProt F0NID3 1-143, looked up) MNAKKRKGSAVERNIVGKLRDKGFAVVRAPASGSKRKDPIPDIIALKSGVIILIEMKSRKDKEGKIYVRREQAEGIMEFARKSGGTLFLGVKKPGVLKFIPFDKLRRTETGNYVADSEIEGLDLEDLVRLVEAKVSKTLDNFL	
	SisPINAK261A, Walker A mutant of SisPINA (enzyme, Sulfolobus islandicus REY15A, UniProt F0NID4 1-505, looked up) MNDLMLDKSALLFGVSKYLEKGIITGNVLIHKSLLAELERESNDGLVSAEIALDEVKKLKDITERILVNFEIVGDDSKKGEANELSREYCLEKGCIIVTADETQKKICDAMGIQYNFLQPLKQGLSFESFFDDETMSLHIKEDTVPRAKKGKPGNWKFVNLSDKPMLSTDVRMIANEIINAVRLIKGSFVEIERRGSLIIQLGNYRVVITRPPLSDGWEITITRPVVRKRLEDYNLDERLIKRLEERAEGIIIAGAPGMGATTFAQALAEYYMRLGKIVKTIESPRDMHLPPEITQYSKNYAEIGELHDILLLSRPDYTVYDEMRNDEDFKLYVDLRLAGVGMVGVVHATSPIDAIHRFVNRVDIGTIPNILDTIIFINSGNVSKVYTLEMTVKVPAGLKEADLARPVVEIKDLATGNTEYEIYVFGEQTMIVPVNRGITMSNMEFKISKIVNNIIPNATVKYEDGEYVIVIPKEEIGKYNRKLVQRLKRLEKKNNIKIKIKLSD	6
